Laboratory results reported in the nanobody polyreactivity screen of Harvey et al. (2022).

Test: yeast display, Sf9 membrane polyspecificity reagent, FACS + sequencing; frameworks hold sequencing errors
Summary of the method: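 Nanobodies from a synthetic yeast display library (Saccharomyces cerevisiae BJ5465), induced 36–48 hours with galactose, were stained 1 hour at 4 °C with 10% biotinylated, detergent-solubilized Sf9 membrane reagent, enriched on streptavidin microbeads, then FACS-sorted. Anti-HA (expression) and streptavidin (reagent binding) fluorescence set low and high (top ~1%) gates. Polyreactivity labels come from the gate of origin. Genes were colony-PCR amplified, MiSeq 2 × 250 sequenced and filtered by CDR length.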

Sequence | polyreactivity (PSR sort gate)
QVQIVESGGGLVQAGGSLRLSCGASGRIFYNYALGWYRQAPGKERELVAAISGSGGSTYYADSVKGRFTISRDNAKNTVYLQMNSLKPEDTAVYYCSTSGPQYYSRNFDYWGQGTQVTVSS | low polyreactivity
QVQLVESGGGLVQAGGRLRLSCAASGRTFGRYAMGWYRQAPGKERELVAAITGGVITTYADSVKGRFTISRDNAKNTVYLQMNSLKPEDTAVYYCAARYNVFPSPHYYYWGQGTQVTVSS | low polyreactivity
QVQLVESGGGLVQAGGSLRLSCAASGGTFYAYAMGWYRQAPGKERELVAAITNSGGSTYYADSVKGRFTISRDNAKNTVYLQMNSLKPEDTAVYYCARRRSYRDNYWGQGTQVTVSS | high polyreactivity
QVQLVESGGGLVQAGGSLRLICAASGRIFGYYAMGWYRQAPGKERELVAAISRAGSTYYADSVKGRFTISRDNAKNTVSLQMNSLKPEDTAVYYCAAVRSVQRHYTEMYYWGQVTQVTVSS | high polyreactivity
QDQLVESGGGLVQAGGRLRLICAAAGLIFVSNAMGWYRQAPGKERELFASISWSGGSTYYADSVKGRFTISRDNAKNTVYLQMNSLKPEDTAVYYCAAAKYVTYLSIYYYWGQGTQVTVSS | high polyreactivity
QVQLVESAGGLVQAGGSLRLSCAASGLTFYRYAMGWYRQAPGKERELVAAISSADRTYYADSVKGRFTISRDNAKNTVYLQMNSLKPEDTAVYYCNARGIGRSTKWSSRDYWGQGTQVTVSS | high polyreactivity
QVQLVESGGGLVQAGGSLRLSCAASGGTFDVYTMGWYRQAPGKERELVAVISSSGGGTYYADSVKGRFTISRDNAKNTVYLQMNSLKPEDTAVYYCAARRKRQNTYYPYYYWGQGTQVTVSS | high polyreactivity
QVQLVESGGGLVQAGGSLRLSCAASGRIFKYNAMGWYRQAPGKERELVAAISGTGGSTYYADSVKGRFTISRDNAKNTVYLQMNSLKPEDTAVYYCAARYYIVSLGSGYWGQGTQVTVSS | high polyreactivity
QVQLVESGGGLFQAGGSLRLSCAASGRIFYYNAMGWYRQAPGKEREFVAAITYRGGSTYYADSVKGRFTISRDNAKITVYLQMNSLKPEDTAVYYCAARSAWQVAPRGRTVAFDYWGQGTQVTVSS | high polyreactivity
QVQLVESGGGLVQAGGSLRLSCAASGSIFRRNTMGWYRQAPGKERELVAAITFTGGRTYYADSVKGRFTISRDNAKNTVYLQMNSLKPEDTAVYYCNRVTAYYPTKFDYWGQGTQVTVSS | high polyreactivity
QVQLVESGGGLVQAGGSLRLSCAASGTIFVPYAMGWYRQAPGKERELVAVITSGGSTYYADSVKGRFTISRDNAKNTVYLQMNSLNPEDTAVYYCIADLYYVWSTLSQFDYWGQGTHVTVSS | low polyreactivity
QVQLVESGGGLVQAGGSLRLSCAASGFTFQYNAMGWYRQAPGKERELVAAITWTGTSTYADSVKGRFTISRDNAKNTVYLQLNSLKPEDTAVYYCAARYYAPRWFSYDYWGQGTQVTVSS | low polyreactivity
QVQLVESGGGLVQAGGSLRLSCAASGRIFYYNAMGGYTQAPGKERELVAAIDWSGGSTYYADSVKGRITISRANAKNTVYLQMNSLKPEDTAVYYCNAPFRYVPPEGSGPYDYWGQGTQVTVSS | low polyreactivity
QVQLVESGGGLVQAGGSLRLSCAASGRTFYNYAMGWYRQAPGKERELVAAITRGGSTYYADSVKGRFTISRDNAKNTVYLQMNSLKPEDTAVYYCNAYYYIPFEGRGYSKMDYWGQGTQVTVSS | high polyreactivity
QVQLVESGGGLVQAGGSLRLSCDASGRIYLYAMGWYRQAPGKERELVAAITTRAGRTYYADSVKGRFTISRDNAKNTVYFQMNSLKPEDNAVSYCAADGTRYPAYGYWGQGTQVTVSS | low polyreactivity
QVQLVESGGGLVQAGGSLRLSCAASGLIFYAYAMGWYRQAPGKERELVAGIWIDDSTYYADSVKGRFTISRDNAKNTVYLQMNSLKPEDTAVYYCNKRVRSYYLYRGDYWGQGTQVTVSS | low polyreactivity

Sequence | polyreactivity (PSR sort gate)
QVQLQERGGGLVQAGASLRQSCAASGTIFTARFMGWYRQAPGKERELVATITDGGNTNDADSVKGRFTSSRDNAKITVYLQMNSLKPEYAAVYYCAAGEVDNDTLLYWGQGSQVTVSS | low polyreactivity
QVQLVESGGGLVQAGGSLRLSCAASGSIFTRNAMGWYRQAPGKERELVAAISRGGGTNYADSVKGRFTISRDNAKNTVYLQMNSLKPEDTAVYYCAARVGYPYPAGYDYWGQGTQVTVSS | high polyreactivity
QVQLVESGGGLVQAGGSLRLSCAASGSIFGSYAMGWYRQAPGKERELVASITRVDSTNYADSVKGRFTISRDNAKNTVYLQMNSLKPEDTAVYYCNAGSRTTAGGMDSWGQGTQVTVSS | low polyreactivity
QAQLQESCGSLVQAGGGQRLSCAASGYISVGTVIGWYRQAPSKERELVASIDQGANTNYADSVKGRFTISRDNAKNNVYLKMNSLKPEDTAVYYCATESTYILNYWGQGTQVTVSS | low polyreactivity
QVQLVESGGGLVQAGGSLRLSCAASGSIFNGYVMGWYRQAPGKERELVASINRGGTTNYADSVKGRFTISRDNAKNTVYFQMNSLKPEDTAVYYCAVDDDANSLGGYYVLFDYWGQGTQVTVSS | low polyreactivity
QVQLVDSGGGLVQAGGSLRLRCAASGITYSYYTKGWYRQAPGKERDLVAGITRSGSTYYADSVKGRFTISRDNAYNTVYLQMNSLKPEDTAVYYCNARARGAYNRPNYPRYYYWGQGTQVTVSS | high polyreactivity
QVQLVESGGGLVQAGGSLRLSCAASGSTFQWYTMGWYRQAPGKERELVAAISRSGGRTYYADSVKGRFTISRDNAKNTVYLQMNSLKPEDTAVYYCAARWGRLPEQYRYDYWGQGTQVTVSS | high polyreactivity
QVQLVESGGGLVQAGGSLRLRCAASGSIFSNNAMGWYRPAPGKERELVAAITRSGGNTYYADSVKGRFTISRDNAKNTVYLQMNSLKPEDTAVYYCNAVHLRKMYYWGQGTQVTVSS | high polyreactivity
QVQLVESGGGLVQAGGSLRLSCAASGRTFDVYAMGWYRQAPGKERELVATIRSDGSTTYADSVKGRFTISRDNAKNTVYLQMTSLKPEDTAVYYCAADFRSGFSSSTTPVQSDWGQGTQVTVSS | low polyreactivity
QVPLVESGVGLVHAGGSLRISCATSGITFAYYFMGWYRQAPGKERELVAAISWTGSSTYYADSVKWRFTISRDNAKNTVYLQMNSLKQEDTAVYYCAARQRYLYDYWGQGTQVNVSS | high polyreactivity
QVQLVESGGGLVQAGGSLRLSCAASGSTFHWYDMGWYRQAPGKERELVAGINSSGDGTYYADSVKGRFTISRDNAKYTVYLQMNSLKPEDTAVYYCAAPWWYYGVPYQTNKYDYWGQGTQVTVSS | low polyreactivity
QVQLVESGGGLVQAGGSLRLICAASGRIFWSNAMRWSRQAPGKVSELVAAISSGGSTYYADSVKGRFTISRDNAKNTVYLQMNRLKPEDTAVYYCATRGIQRGFSRWGGLDYWGQGTLVTVSS | low polyreactivity
QVQLVESGGGLVQAGGSLRLSCADSGRTFYQNAKGWYRQAPGKEREFVAAISWSSGSTYYADSVKGRFTISRDYAKNTVYLQMNSLKPEDTAVYYCAAYTSFPYIWYGYWGQGTQVTVSS | high polyreactivity
QVQLVESGGGLVQAGGSLRLSCAASGSTFSVYAMGWYRQAPGKERELVAAITWSGGSTYYADSVKGRFTISRDNAKNTVYLQMNSLKPEDTAVYYCAARYGRIHWKANWPEYGYWGQGTQVTVSS | low polyreactivity
QVQLVESGGGLVQAGGSLRLSCAASGFIFYLNVMGWYRQAPGKERELVATITSGGSTNYADSVKGRFTISRDNAKNTVYLQMNSLKPEDTAVYYCAAEQVWYDWEYDYWGQGTQVTVSS | high polyreactivity
